Assay results from patent publication US20220267421A1 (INVOX PHARMA, published 2022).
Numbering of substitutions follows the chain as printed.

T1: cynomolgus MSLN-His-Avi (cynomolgus, single biotin (BirA) in the biotinylated form)
T1 construct: Monomeric, made in HEK293-6E; also called cMSLN-His-Avi; cyno MSLN-His-Avi
T1 chain: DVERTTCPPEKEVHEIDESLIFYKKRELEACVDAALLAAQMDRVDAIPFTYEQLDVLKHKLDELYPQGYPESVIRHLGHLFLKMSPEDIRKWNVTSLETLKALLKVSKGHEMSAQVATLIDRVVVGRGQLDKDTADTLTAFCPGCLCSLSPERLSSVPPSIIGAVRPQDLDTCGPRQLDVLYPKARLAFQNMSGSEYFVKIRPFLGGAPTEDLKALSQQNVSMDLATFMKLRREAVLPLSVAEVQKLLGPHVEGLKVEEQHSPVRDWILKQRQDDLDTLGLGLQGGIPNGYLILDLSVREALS

B1: FS22-053-008-AA/FS28-256 (bispecific antibody, human IgG1, kappa, L234A L235A, V domains shown)
VH: EVQLLESGGGLVQPGGSLRLSCAASGFTFTNTYMSWVRQAPGKGLEWVSNISPTYSTTNYADSVKGRFTISRDNSKNTLYLQMNSLRAEDTAVYYCARYNSYQGGLDYWGQGTLVTVSS
VL: EIVLTQSPGTLSLSPGERATLSCRASQSVSSSYLAWYQQKPGQAPRLLIYGASSRATGIPDRFSGSGSGTDFTLTISRLEPEDFAVYYCQQSYYYPITFGQGTKVEIKR
B2: FS22-053-008-AA/FS28-256-024 mAb^2 (bispecific antibody, human IgG1, kappa, L234A L235A, V domains shown)
VH: B1 VH with N31H, S75N, S101A, Q103H, G104A, G105A
VL: B1 VL with S92A, Y93L, Y94G, I97H
B3: FS22-053-008-AA/FS28-256-027 mAb^2 (bispecific antibody, human IgG1, kappa, L234A L235A, V domains shown)
VH: B1 VH with N31H, S75N, S101A, Q103H, G104A, G105A
VL: B1 VL with S92T, Y93V, Y94P, I97Y
B4: FS22-053-008-AA/FS28-256-021 mAb^2 (bispecific antibody, human IgG1, kappa, L234A L235A, V domains shown)
VH: B1 VH with N31H, S75N, S101A, Q103H, G104A, G105A
VL: B1 VL with S92H, Y93N, Y94Q, I97N
B5: FS22-053-008-AA/FS28-256-026 mAb^2 (bispecific antibody, human IgG1, kappa, L234A L235A, V domains shown)
VH: B1 VH with N31Q, S101A, G104I
VL: B1 VL with S92A, Y93L, Y94G, I97H
B6: FS22-053-008-AA/FS28-256-012 mAb^2 (bispecific antibody, human IgG1, kappa, L234A L235A, V domains shown)
VH: B1 VH with N31H, S75N, S101A, Q103H, G104A, G105A
VL: B1 VL
B7: FS22-053-008-AA/FS28-256-023 mAb^2 (bispecific antibody, human IgG1, kappa, L234A L235A, V domains shown)
VH: B1 VH with N31Q, S101A, G104I
VL: B1 VL with S92H, Y93N, Y94Q, I97N
B8: FS22-053-008-AA/FS28-026 mAb^2 (bispecific antibody, human IgG1, kappa, L234A L235A, V domains shown)
VH: EVQLLESGGGLVQPGGSLRLSCAASGFTFSNYAMTWVRQAPGKGLEWVSSITPYYSKTDYADSVKGRFTISRDNSKNTLYLQMNSLRAEDTAVYYCARNWYRFDYWGQGTLVTVSS
VL: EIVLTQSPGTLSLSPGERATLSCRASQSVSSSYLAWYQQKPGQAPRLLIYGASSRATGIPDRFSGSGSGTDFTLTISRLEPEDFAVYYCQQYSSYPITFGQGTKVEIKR
notes: also called FS28-026 (in mAb^2 format)
B9: FS22-053-008-AA/FS28-091 mAb^2 (bispecific antibody, human IgG1, kappa, L234A L235A, V domains shown)
VH: B8 VH with S30T, T35S, T52K, Y55D, S56G, K57N, D59Y, W100R, Y101W, R102V
VL: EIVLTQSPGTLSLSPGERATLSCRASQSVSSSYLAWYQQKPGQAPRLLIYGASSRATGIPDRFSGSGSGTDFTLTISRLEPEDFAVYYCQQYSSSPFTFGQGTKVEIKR
notes: also called FS28-091 (in mAb^2 format)

These binders were tested against T2, human MSLN-His-Avi (human, UniProt Q13421 296-598, single biotin (BirA) in the biotinylated form) (assay: ratio of the two SPR KD).
T2 construct: Monomeric, made in HEK293-6E; Used both immobilised and in solution; also called hMSLN-His-Avi; biotinylated hMSLN-His-Avi
Procedure: (§1) Human MSLN-His-Avi was immobilised on flow cell 2 on a CM5 Series S BIAcore sensor chip (GE Healthcare, BR100530) using an amine coupling kit (GE Healthcare, BR10050) to approximately 200 response units (RU). Flow cell 1 was left blank for subtraction. HEK293-6E supernatants or purified proteins were adjusted with HBS-EP+(GE Healthcare) to approximately 50 nM anti-MSLN mAb per sample. Samples were injected over flow cell 1 and 2 for 2.5 min at 30 μl/min and then allowed to dissociate in HBS-EP buffer for 2.5 min. Regeneration was achieved by injecting 10 mM glycine pH 1.5 (GE Healthcare, BR100354) for 30 seconds at a rate of 30 μl/min. Subtracted data (flow cell 2−flow cell 1) were analysed using BIAevaluation 3.2 Software (GE Healthcare).
(§2) Binding of the selected anti-MSLN clones in mAb² format, to recombinant human and cyno MSLN-His-Avi antigen was measured by SPR using a Biacore T200 processing unit (GE Healthcare). As previously described, it was desirable to bind more strongly to immobilised antigen than to soluble antigen. To assess the binding properties of the clones, binding kinetics to immobilised MSLN antigen were determined as described in section 2.1.2 and compared to the kinetics obtained when MSLN antigens in solution bound to captured clones.
(§3) For the capture experiments, clones in mAb² format were captured using a BIAcore sensor series S chip Protein G (GE Healthcare, 29179315). mAb² diluted in HBS-EP buffer (GE Healthcare, BR100188) containing 900 mM […] at 1 μg/ml, were injected individually on flow cell 2, 3 and 4 at 30 μl/min to achieve a response of approximately 100 RU. G1-AA/HeID1.3 was captured on flow cell 1. The recombinant human and cyno MSLN-His-Avi (section 1.1), diluted in HBS-EP buffer containing 900 mM […], were injected on flow cell 1, 2, 3 or 4 as appropriate at a concentration range of 1000 nM to 0.051 nM with 3-fold dilutions for 5 minutes at 70 μl/min and then allowed to dissociate in buffer for 5 minutes. Regeneration was achieved by injecting 10 mM glycine pH1.5 (GE Healthcare, BR100354) and surfactant P20 (GE Healthcare, BR-1000-54) for 20 seconds at a rate of 30 μl/min.

T2 sequence (Q13421 other isoform, or with tags, fused parts or gaps): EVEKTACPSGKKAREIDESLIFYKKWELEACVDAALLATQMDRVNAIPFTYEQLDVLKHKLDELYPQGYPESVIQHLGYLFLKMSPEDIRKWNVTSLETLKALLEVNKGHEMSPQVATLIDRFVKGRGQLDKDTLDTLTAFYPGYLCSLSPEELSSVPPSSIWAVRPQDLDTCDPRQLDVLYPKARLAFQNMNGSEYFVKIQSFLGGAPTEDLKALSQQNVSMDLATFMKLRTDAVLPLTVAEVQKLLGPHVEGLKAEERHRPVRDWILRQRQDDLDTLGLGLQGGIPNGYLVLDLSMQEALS

Row | Ratio of KD in solution/immobilised for human MSLN-His-Avi | Binder
1 | 37.5 | B1
2 | 14.3 | B2
3 | 5.3 | B3
4 | 7 | B4
5 | 19.5 | B5
6 | 209 | B6
7 | 20.8 | B7
8 | 5000 | B8
9 | 580 | B9

These binders were tested against T3, cell surface human mesothelin (MSLN) (human, UniProt Q13421 296-598) (assay: flow cytometry, NCI-H226 cells).
T3 construct: whole, on cells; also called cell surface MSLN
Procedure: (§4) Cells were centrifuged at 1200 rpm for 3 min and resuspended in ice cold FACS buffer made up of DPBS (Life Technologies, 14190169) and 1% BSA (Sigma-Aldrich, A7906) at 2×10⁶ cells/ml and 50 μl per well was seeded in a 96-well V-bottom plate (Costar, 3894). All mAbs tested were diluted in FACS buffer in 120 μl at a concentration range of 0.01-200 nM (4-fold dilutions). The NCI-H226 cells were then centrifuged, supernatant removed and cells resuspended in 100 μl of each mAb dilution and incubated at 4° C. for 45 min. Cells were washed twice by centrifugation with 150 μl FACS buffer, resuspended in 100 μl containing goat anti-human IgG (γ-chain specific) F(ab′)2 fragment-R-Phycoerythrin antibody (Sigma, P8047) diluted 1:1000 in FACS buffer and incubated at 4° C. for 45 min. The cells were washed once with 150 μl FACS buffer and then with 150 μl DPBS, resuspended in 150 μl DPBS containing DAPI (Biotium, 40043) at 1:10.000 and read on the BDCantoll or iQue (Intellicyt). Data was analysed using FlowJo v10 to determine the signal geometric mean for PE for live cells in each well.
(§5) Cell binding assays using OVCAR-3 cells were performed similarly to the assays described in section 2.4. The effect of the presence of soluble MSLN was tested by pre-incubating the antibodies in the presence or absence of soluble MSLN before mixing with cells and determining if the pre-incubation affected binding to MSLN on the cell surface. […] 60 μl from each well was then added to either FACS buffer alone or to FACS buffer containing 60 μl of 40 nM recombinant hMSLN (R&D systems, 3265-MS-050) (to give a final concentration of 20 nM hMSLN) and pre-incubated at room temperature for 1 hour before 100 μl was added to the cells. Bound antibody was detected using goat anti-human anti-Fcγ Alexa-Fluor 488 (Jackson Immunoresearch, 109-546-098).
(§6) The method used was exactly as described in section 3.1.4.

T3 sequence (Q13421 other isoform, or with tags, fused parts or gaps limits assumed): as the sequence (Q13421 other isoform, or with tags, fused parts or gaps) above

Row | EC50 [nM] | Emax (MFI) | Binder
10 | 15.8 | 276000 | B1
11 | 3.88 | 813000 | B2
12 | 3.93 | 987000 | B3
13 | 3.29 | 919000 | B4
14 | 2.43 | 741000 | B5
15 | 8.48 | 969000 | B6
16 | 3.29 | 856000 | B7
17 | 1.91 | 730000 | B8
18 | 2.72 | 740000 | B9

Molecular target: T1, cynomolgus MSLN-His-Avi
Assay: SPR (Biacore), mAb^2 captured on Protein G, MSLN in solution injected
Procedure: as §2
as §3, with “μl/min. Subtracted data (flow cell 2−flow cell 1, flow cell 3−flow cell 1, or flow cell 4−flow cell 1) were analysed using BIAevaluation 3.2 Software (GE Healthcare) to identify binding using the model 1:1 binding, local Rmax and with refractive index (RI) constant 0.” for “μl/min.”

Row | Kd [nM] | Binder
19 | 738 | B1
20 | 56.7 | B2
21 | 0.7 | B3
22 | 16.2 | B4
23 | 33.2 | B5
24 | 717 | B6
25 | 32.6 | B7
26 | 886 | B8
27 | > 1000 | B9

Each binder was assayed against T2, human MSLN-His-Avi in the same assay as above.
Procedure: as §2
as §3, with “μl/min. Subtracted data (flow cell 2−flow cell 1, flow cell 3−flow cell 1, or flow cell 4−flow cell 1) were analysed using BIAevaluation 3.2 Software (GE Healthcare) to identify binding using the model 1:1 binding, local Rmax and with refractive index (RI) constant 0.” for “μl/min.”

Row | Kd [nM] | Binder
28 | 889 | B1
29 | 95.4 | B2
30 | 6 | B3
31 | 23.2 | B4
32 | 62.3 | B5
33 | 861 | B6
34 | 68.6 | B7
35 | 700 | B8
36 | 615 | B9

Each binder was assayed against T2, human MSLN-His-Avi (assay: SPR (Biacore), MSLN immobilised, mAb^2 injected).
Procedure: as §1, §2

Row | Kd [nM] | Binder
37 | 23.7 | B1
38 | 6.7 | B2
39 | 1.1 | B3
40 | 3.3 | B4
41 | 3.2 | B5
42 | 4.1 | B6
43 | 3.3 | B7
44 | 0.14 | B8
45 | 1.1 | B9

What follows are binders tested against T3, cell surface human mesothelin (MSLN) (assay: flow cytometry, NCI-H226 cells + 20 nM soluble MSLN).
Procedure: as §4, §5, §6

Row | EC50 [nM] | Emax (MFI) | Binder
46 | 39.4 | 351000 | B1
47 | 3.91 | 669000 | B2
48 | 21.8 | 964000 | B3
49 | 7.65 | 839000 | B4
50 | 4.59 | 715000 | B5
51 | 4.83 | 790000 | B6
52 | 3.9 | 716000 | B7
53 | 2.65 | 702000 | B8
54 | 3.97 | 745000 | B9
